Laboratory results as given in the supplement of paper PMC12783771.
± gives the standard deviation of the averaged measurements.

B1: library; numbered along this chain (parent)
chain: MNIQIGELAKRTACPVVTIRFYEQEGLLPPPGRSRGNFRLYGEEHVERLQFIRHCRSLDMPLSDVRTLLSYRKRPDQDCGEVNMLLDEHIRQVESRIGALLELKHHLVELREACSGARPAQSCGILQGLSDCVCDTRGTTAHPSD

What was measured:
[1] = variants of: B1; test: sfGFP reporter fluorescence (15 h) (µM FITC); higher = higher leak; conditions: library round: Round 1; ligand: none
Description: (§1)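 Cell-free biosensing: 1 µL Echo-assembled CFE reactions with linear PbrR variant templates (5 nM) and pPbrR-sfGFP reporter, with 1 µM Pb, 30 µM Zn or no ligand; endpoint sfGFP fluorescence after 15 h at 30 °C calibrated as µM FITC. Round 1 ML-predicted PbrR mutants; 3 biological replicates.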

[2] = variants of: B1; test: sfGFP reporter fluorescence (15 h) (µM FITC); higher = stronger transcriptional activation; conditions: library round: Round 1
Description: as §1

Variant	sfGFP reporter fluorescence [1]	sfGFP reporter fluorescence ([2]; ligand: 1 µM Pb)	sfGFP reporter fluorescence ([2]; ligand: 30 µM Zn)
MNIQIGELAKRTACPVVTIRFYEQEGLLPPPGRSRGNFRLYGEEHVERLQFIRHCRSLDMPISDVRTLLSYRKRPDQDCGEVNMLLDEHIRQVESRIGALLELKHHLVELLEACSGARPAQSCGILQGLSDCVCDTRGTTAHPSD [L62I R111L]	0.0639 ± 0.002	0.0671 ± 0.0036	0.143 ± 0.0089
MNIQIGELAKRTACPVVTIRFYEQEGLLPPPGRSRGNFRLYGEEHVERLQFIRHCRSLDMPLSDVRTLLSYRKRPDQDCGEVNMLLDEHIRQVESRIGALLELVHHLKELREACSGARPAQSCGILQGLSDCVCDTRGTTAHPSD [K104V V108K]	0.109 ± 0.0044	0.316 ± 0.063	1.44 ± 0.15
MNIQIGELAKRTACPVVTIRFYEQEGLLPPPGRSRGNFRLYGEEHVERLQFIRHCRSLDMPLSDVRTLLSYRKRPDQDCGEVNMLLDEHIRQVESRIGALLELKAHLVELREACSGARPAQSCGALQGLSDCVCDTRGTTAHPSD [H105A I125A]	0.0647 ± 0.0012	0.0639 ± 0.0042	0.0656 ± 0.0013
MNIQIGELAKRTACPVVTIRFYEQEGLLPPPGRSRGNFRLYGEEHVERLQFIRHCRSLDMPLSKVRTLLSYRKRPDQDCGEVFMLLDEHIRQVESRIGALLELKHHLVELREACSGARPAQSCGILQGLSDCVCDTRGTTAHPSD [D64K N83F]	0.0616 ± 0.0024	0.198 ± 0.035	0.143 ± 0.01
MNIQIGELAKRTACPVVTIRFYEQEGLLPPPGMSRGNFRLYGEEHVERLQFIRHCRSLDMPLSDVRTLLSYRKRPDQDCGEVNMLLDEHIRQVESRIGALLELKHHLVELREACSGARPAQSCGILTGLSDCVCDTRGTTAHPSD [R33M Q127T]	0.0635 ± 0.0027	0.0614 ± 0.0047	0.0645 ± 0.0022
MNIQIGELAKRTACPVVTIRFYEQEGLLPAPGRSRGNFRLYGEEHVERLQFIRHCRSLDMPLSDVRTLLSYRKRPDQDCGEVNMLLDEHIRQVESRIGALLELVHHLVELREACSGARPAQSCGILQGLSDCVCDTRGTTAHPSD [P30A K104V]	0.0666 ± 0.0032	0.115 ± 0.011	0.583 ± 0.05
MNIQIGELAKRTACPVVTIRFYEQEGLLPPPGRSRGNFRLYGEEHVERLQFIRHCRSLDMPLSDVRTLLSYRKRPDQDCGEVNMLLDEHLRQVESRIGALLELKHHLVELREACSGARPAQSCGILQGLSDCVCATRGTTAHPSD [I90L D135A]	0.0614 ± 0.0011	0.0634 ± 0.0038	0.207 ± 0.0065
